# T1: Aleuria aurantia lectin (AAL) (Aleuria aurantia, UniProt P18891)
# T1 sequence (P18891 1-313): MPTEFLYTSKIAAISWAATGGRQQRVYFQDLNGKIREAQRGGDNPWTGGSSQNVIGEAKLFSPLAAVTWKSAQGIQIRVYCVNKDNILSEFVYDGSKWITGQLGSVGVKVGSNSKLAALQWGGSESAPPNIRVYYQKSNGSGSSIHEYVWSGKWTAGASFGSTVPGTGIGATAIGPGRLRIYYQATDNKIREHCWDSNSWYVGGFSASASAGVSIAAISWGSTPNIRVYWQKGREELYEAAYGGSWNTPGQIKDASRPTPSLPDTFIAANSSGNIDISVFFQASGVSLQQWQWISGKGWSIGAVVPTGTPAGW
# What was measured:
# [1] = target: T1, Aleuria aurantia lectin (AAL); assay: ELISA analysis of binding between lectin AAL and glycoproteins or released N-glycans; details: for AAL binding: glycoprotein coated on plate; for EC50: glycoprotein coated on plate (10 μg/ml), AAL-biotin serial dilution
# From the text: FIG. 9 ELISA analysis of the binding between lectin AAL and glycoproteins or released N-glycans. The glycoproteins or released N-glycans (tagged with Fmoc) were immobilized on the plates and probed by serial dilutions of the lectin. A) AAL binding with RNase B (20) and fucosylated RNase B (21); B) AAL binding with non-fucosylated glycoform of rituximab (28) and fucosylated rituximab glycoform (30); C) AAL binding with the PNGase F released high-mannose N-glycans released from 20 and 21; D) ALL binding with the PNGase F released complex type N-glycans from 28 and 30.
# The glycoprotein (20, 21, 28 or 30) (10 μg/ml) in a phosphate buffer (pH 7.5) was coated onto a 96-well plate (UltraCruz®) at 4° C. for overnight. After wash twice, 2% bovine serum albumin in PBS containing Tween® 20 (PBST buffer) was added to block the plate for 2 h. Subsequently, after washed twice again, a serial dilution of AAL-biotin ranging from 0.1 μM to 1000 μM in PBST buffer was added and the plate was incubated for 1 h. After washing, peroxidase streptavidin (2 μg/mL) (Jackson ImmunoResearch Inc.) was added and incubated for 1 h. Finally, 100 μL of substrate, 3, 3′, 5, 5′-tetramethylbenzidine was added for signal development. The reaction was stopped by the adding 100 μL of 20% sulfuric acid (v/v). The absorbance at 450 nm was measured using SpectraMax M5 microplate reader (Molecular Devices). For the binding of the N-glycans, the Fmoc-labeled N-glycans released from 20, 21, 28 and 30 (1 μg/ml) were coated on the plate and the ELISA analysis was performed in the same manner as that of the glycoproteins.
# physchem = type: physicochemical; details: buffer, pH 7.4
# From the text: Initially, the D200 mutants were examined as potential glycosynthases using two types of activated fucosyl donors with opposite anomeric configuration as substrates. For nucleophile mutant such as D200G, a fucosyl fluoride with reversed anomeric configuration, β-fucosyl fluoride or β-fucosyl azide, should be applied to mimic the enzyme-substrate intermediate^52,53,67. However, β-glycosyl fluorides are quite unstable and are subjected to spontaneous hydrolysis in aq. solutions^42. Indeed, most successful glycosynthases have been derived so far from retaining β-glycosidases that take the α-glycosyl fluoride as donor substrate. […] Thus, the potential glycosylation activity of the nucleophilic mutants, including D200G, D200S, D200A, and D200S, were tested using both the β-glycosyl azide (1) and the β-glycosyl fluoride (2) as the donor substrates and the Fmoc-Asn(GlcNAc)-OH (4)^69 as the acceptor substrate (FIG. 3). The reactions were run with different amounts of enzymes and were monitored by reverse-phase HPLC analysis.
# [2] = buffer; cited from earlier work
# [3] = Transglycosylation kinetics of AlfC α-fucosidase mutants; type: biochemical; details: apparent; donor sugar 0.2 to 2.0 mM, acceptor 2.0 mM, sodium phosphate 0.1M pH 7.5, 42° C.
# Experimental: The kinetic studies on transglycosylation were carried out at 42° C. in sodium phosphate (0.1 M, pH 7.5). The transglycosylation product was detected and quantitated by HPLC analysis. The concentration of the donor substrates (1-3) was varied from 0.2 to 2.0 mM, while that of the acceptor (4) was fixed (2 mM). KM and kcat values (strictly, apparent KM and kcat, as they were determined at a fixed, nonsaturating, co-substrate concentration) were determined by fitting the initial velocity curves to the Michaelis-Menten equation by nonlinear regression in GraFit.
# [4] = Glycoligase (transfucosylation) activity on acceptor 4, pH and temperature profiles; type: biochemical; details: donor 3, acceptor 4, pH 7.5, 42° C.
# Experimental: A) pH profile; B) temperature profile of its catalysis. […] The transglycosylation product was quantitated by HPLC analysis. To investigate temperature profile of AlfC α-fucosidase in transglycosylation reaction, a mixture of donor sugar 3 (20 mM), acceptor sugar (4) (10 mM) and enzyme AlfC E274G (0.2 mg/mL) was incubated in a PBS buffer (0.1 M, pH7.5) containing 5% DMSO. The reactions were carried out for 20 min at various temperatures, including 25° C., 30° C., 35° C., 40° C., 45° C., 50° C. and 55° C. The transglycosylation product was quantitated by HPLC analysis.
# Next, the potential glyco-ligase activity was tested of the general acid/base residue mutants using the α-fucosyl fluoride (3) as the donor substrate (FIG. 3).
# [5] = Hydrolysis of α-fucosyl fluoride in the absence of the GlcNAc acceptor; type: biochemical
# rituximab = assay: Defucosylation of rituximab by wild-type AlfC α-fucosidase; type: biochemical
# From the text: The potent transfucosylation activity of AlfC α-fucoligase towards glycopeptides and glycoproteins prompted further exploring of its application for glycoengineering of therapeutic monoclonal antibodies. Core fucosylation of the Fc domain N-glycans plays a pivotal role in modulating the functions of antibodies and their therapeutic efficacy^8,74. It was previously developed by the current inventors a chemoenzymatic Fc glycan remodeling method that consists of deglycosylation and glycosynthase-catalyzed glycan transfer to produce homogeneous Fc glycoforms^65,66,75. If the fucoligase mutant could act on intact antibody, then it would further expand the repertoire of the toolbox for antibody Fc glycan engineering. To test this possibility, rituximab (26) was selected as a model system. First, rituximab was deglycosylated with Endo-S followed by defucosylation with the wild type AlfC α-fucosidase to give the GlcNAc-rituximab (27) (FIG. 7). […] The non-fucosylated complex type glycoform (28) of rituximab was synthesized by the EndoS-D233Q catalyzed glycosylation with glycan oxazoline (24) as the donor, following previously published procedure^75. These two glycoforms (27 and 28) were used as potential substrates for examining the AlfC fucoligase mutants. […] The product was readily isolated by protein A affinity chromatography. To confirm the identity of the Fucα1,6GlcNAc-rituximab (29), the product was treated with protease IdeS which specifically hydrolyzes IgG antibody to release the monomeric Fc domain, and the released Fc was analyzed by ESI-MS. […] As described previously, Fucα1,6GlcNAc-rituximab (29) was an excellent substrate for EndoS-D233Q^75. Indeed, incubation of 29 with EndoS-D233Q and glycan oxazoline (24) gave the expected core-fucosylated complex type glycoform of rituximab (30) in excellent yield, further confirming that the 29 was the expected Fucα1,6GlcNAc-rituximab.
# Finally, the direct fucosylation of the intact rituximab (28) was tested carrying the full size complex type Fc N-glycans. […]
molecule,measurement,setting,value
28: non-fucosylated complex type glycoform of rituximab [compound 28],AAL binding,[1],did not show any detectable affinity
30: core-fucosylated complex type glycoform of rituximab [compound 30],AAL binding,[1],specific recognition
same,EC50,[1],15 µM
same,affinity for AAL relative to core-fucosylated RNase B (21),[1]; glycoproteins,about 17 fold
"C[C@@H]1O[C@H](F)[C@@H](F)[C@H](O)[C@@H]1O [compound 2, 2-deoxy-2-fluoro-β-fucosyl fluoride]",half-life,physchem,6 h
C[C@@H]1O[C@H](F)[C@@H](O)[C@H](O)[C@@H]1O [β-fucosyl fluoride],half-life (spontaneous hydrolysis),[2],ca. 20 min
"E274G: Lactobacillus casei α1,6-fucosidase (AlfC) mutant at general acid/base residue E274 (protein) MNDNVAWFKQAKYGMMIHWGLYSLLAGEYRGESSSAYAEWIQSKFQIPNAEYGNLATAFNPLYFDAKKIVALAKQCGMQYLVVTTKHHDGFAMYHSKVDAYNVYDATPFHRDIIGELAEACQKAGLKFGLYYSQDLDWHDPNGGGYKSNDVETAGTTWDNSWDFPDEDQKNFDLCFDNKILPQIKEIMSNYGDIATAWFDVPMTLSEAQSQTIYDTVRELQPNCLINSRLGNGKYDFVSLGDNEIPKNKEDMNKTDVDYNEITGFKPSPLGLYGTAGTINDSWGFSYHDQNWKTPRTLYRYKQHLNDFGINYLLNVGLDPLGRVPMMAEENLLAAKALEDEANRL",Km,[3],250 ± 30 µM
same,kcat,[3],1.38 ± 0.15 × 10^2 min^−1
same,catalytic activity to transfer fucose to GlcNAc of acceptor 4,[4],excellent catalysts for fucosylation
same,hydrolysis of α-fucosyl fluoride,[5],only hydrolyzed α-fucosyl fluoride slowly
"E274S: Lactobacillus casei α1,6-fucosidase (AlfC) mutant at general acid/base residue E274 (protein) MNDNVAWFKQAKYGMMIHWGLYSLLAGEYRGESSSAYAEWIQSKFQIPNAEYGNLATAFNPLYFDAKKIVALAKQCGMQYLVVTTKHHDGFAMYHSKVDAYNVYDATPFHRDIIGELAEACQKAGLKFGLYYSQDLDWHDPNGGGYKSNDVETAGTTWDNSWDFPDEDQKNFDLCFDNKILPQIKEIMSNYGDIATAWFDVPMTLSEAQSQTIYDTVRELQPNCLINSRLGNGKYDFVSLGDNEIPKNKEDMNKTDVDYNEITGFKPSPLGLYSTAGTINDSWGFSYHDQNWKTPRTLYRYKQHLNDFGINYLLNVGLDPLGRVPMMAEENLLAAKALEDEANRL",Km,[3],260 ± 30 µM
same,kcat,[3],2.42 ± 0.14 × 10^2 min^−1
same,catalytic activity to transfer fucose to GlcNAc of acceptor 4,[4],excellent catalysts for fucosylation
same,hydrolysis of α-fucosyl fluoride,[5],only hydrolyzed α-fucosyl fluoride slowly
"wild type AlfC: α1,6-fucosidase from Lactobacillus casei (AlfC), wild type (protein, listed as Lactobacillus casei) MNDNVAWFKQAKYGMMIHWGLYSLLAGEYRGESSSAYAEWIQSKFQIPNAEYGNLATAFNPLYFDAKKIVALAKQCGMQYLVVTTKHHDGFAMYHSKVDAYNVYDATPFHRDIIGELAEACQKAGLKFGLYYSQDLDWHDPNGGGYKSNDVETAGTTWDNSWDFPDEDQKNFDLCFDNKILPQIKEIMSNYGDIATAWFDVPMTLSEAQSQTIYDTVRELQPNCLINSRLGNGKYDFVSLGDNEIPKNKEDMNKTDVDYNEITGFKPSPLGLYETAGTINDSWGFSYHDQNWKTPRTLYRYKQHLNDFGINYLLNVGLDPLGRVPMMAEENLLAAKALEDEANRL",hydrolysis of α-fucosyl fluoride,[5],could quickly hydrolyze the donor substrate
same,hydrolytic (defucosylation) activity,"rituximab; intact rituximab, before Endo-S treatment, listed as wild type AlfC α-fucosidase",almost no activity
same,hydrolytic (defucosylation) activity,"rituximab; intact rituximab, before Endo-S treatment, listed as wild-type AlfC α-fucosidase",unable to remove the fucose moiety
same,hydrolytic (defucosylation) activity,rituximab; rituximab after Endo-S deglycosylation,good hydrolytic activity
"21: core-fucosylated RNase B glycoforms carrying core fucosylated high-mannose glycans (protein, UniProt P61823 27-150, looked up, core-fucosylated high-mannose glycans) Ribonuclease pancreatic: KETAAAKFERQHMDSSTSAASSSNYCNQMMKSRNLTKDRCKPVNTFVHESLADVQAVCSQKNVACKNGQTNCYQSYSTMSITDCRETGSSKYPNCAYKTTQANKHIIVACEGNPYVPVHFDASV",AAL binding,[1],specific binding
same,EC50,[1],275 µM
"20: bovine ribonuclease B, natural glycoprotein with heterogeneous high-mannose type N-glycan (protein) KETAAAKFERQHMDSSTSAASSSNYCNQMMKSRNLTKDRCKPVNTFVHESLADVQAVCSQKNVACKNGQTNCYQSYSTMSITDCRETGSSKYPNCAYKTTQANKHIIVACEGNPYVPVHFDASV",AAL binding,[1],didn't show any binding

# Source: patent US11193155B2, “Designer α 6-fucosidase mutants enable direct core fucosylation of intact N-glycopeptides and N-glycoproteins” (UNIVERSITY OF MARYLAND, COLLEGE PARK, priority 2016, dated 2021)
